Blank lines part the entries; values can stand above or below the binder they belong to.
Assays:
IL10 [1] = molecular target: T1, IL10 (UniProt P22301 19-178); assay: MicroScale Thermophoresis, 5 nM NT647-labeled receptor fusion against a gradient of ligand, 25 C
Experimental: (§1) The affinity of QTY modified cytokine receptor fused with Fc of IgG for their respective native ligands was measured using MicroScale Thermophoresis (MST). Changes in thermophoretic movement for labeled proteins upon ligand-binding were recorded and plotted as a function of ligand concentration.
(§2) MicroScale Thermophoresis (MST) is an optical method detecting changes in thermophoretic movement and TRIC of the protein-attached fluorophore upon ligand binding. Active labelled proteins contribute to the thermophoresis signal upon ligand binding. […] Herein ligand binding experiments were carried out with 5 nM NT647-labeled protein in 1× PBS, 10 mM DTT buffer with different concentration of arginine, against a gradient of respective ligands on a Monolith NT.115 pico instrument at 25° C. Synthesized receptors were labeled with Monolith NT™ 2nd generation protein labeling kit RED-NHS (NanoTemper Technologies) so as to obtain unique fluorescent signals. MST time traces were recorded and analyzed to obtain the highest possible signal-to-noise levels and amplitudes, >5 Fnorm units. The recorded fluorescence was plotted against the concentration of ligand, and curve fitting was performed using the Kd fit formula derived from the law of mass action. For clarity, binding graphs of each independent experiment were normalized to the fraction bound (0=unbound, 1=bound). MST experiments were performed in the Center for Macromolecular Interactions at Harvard Medical School.

IL10 [2] = molecular target: T1, IL10; assay: MicroScale Thermophoresis (MST), fluorescently labelled receptor fusion titrated with IL10
From the text: (§3) FIG. 3A-3D. MST ligand binding measurements. The receptors were labeled with fluorescent dye. The ligands were purchased commercially from and dissolved in di water. (FIG. 3A) IL4Rα^QTY-Fc with IL4; (FIG. 3B) IL10Rα^QTY-Fc with IL10; (FIG. 3C) IFNγR1^QTY-Fc with IFNγ; (FIG. 3D) […].
as §2, with “MST experiments were performed in the Center for Macromolecular Interactions at Harvard Medical School.” left out

IL29 [3] = molecular target: T2, IL29 (UniProt Q8IU54 20-200, limits assumed); assay: MicroScale Thermophoresis, 5 nM NT647-labeled receptor fusion against a gradient of ligand, 25 C
T2 sequence (Q8IU54 20-200 limits assumed): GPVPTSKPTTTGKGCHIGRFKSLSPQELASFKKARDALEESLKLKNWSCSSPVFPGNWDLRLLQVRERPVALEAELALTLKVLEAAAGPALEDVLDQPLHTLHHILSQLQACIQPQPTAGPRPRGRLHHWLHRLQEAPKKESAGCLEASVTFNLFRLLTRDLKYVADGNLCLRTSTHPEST
Experimental: as §1, §2

IL29 [4] = molecular target: T2, IL29; assay: MicroScale Thermophoresis (MST), fluorescently labelled receptor fusion titrated with IL29
From the text: as §3
as §2, with “MST experiments were performed in the Center for Macromolecular Interactions at Harvard Medical School.” left out

IFNγ [5] = molecular target: T3, IFNγ (UniProt P01579 24-166, limits assumed); assay: MicroScale Thermophoresis, 5 nM NT647-labeled receptor fusion against a gradient of ligand, 25 C
T3 sequence (looked up): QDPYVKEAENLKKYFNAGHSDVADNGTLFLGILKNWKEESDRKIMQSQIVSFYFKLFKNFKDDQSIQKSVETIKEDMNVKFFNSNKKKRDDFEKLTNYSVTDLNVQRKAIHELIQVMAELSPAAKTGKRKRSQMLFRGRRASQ
Experimental: as §1, §2

IFNγ [6] = molecular target: T3, IFNγ; assay: MicroScale Thermophoresis (MST), fluorescently labelled receptor fusion titrated with IFNγ
From the text: as §3
as §2, with “MST experiments were performed in the Center for Macromolecular Interactions at Harvard Medical School.” left out

T1 sequence (P22301 19-178 limits assumed): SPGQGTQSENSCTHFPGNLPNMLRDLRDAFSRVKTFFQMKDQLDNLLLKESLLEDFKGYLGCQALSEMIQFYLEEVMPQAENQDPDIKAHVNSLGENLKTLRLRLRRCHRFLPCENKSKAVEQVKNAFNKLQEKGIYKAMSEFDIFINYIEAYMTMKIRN

Kd (IL10 [1]): 1.6 nM | EC50 (read off the curve) (IL10 [2]): ~4 nM
B1: IL10Rα^QTY-Fc (HUMAN Interleukin-10 receptor subunit alpha-Fc fusion) (Fc fusion)
chain: HGTELPSPPSVWFEAEFFHHILHWTPIPNQSESTCYEVALLRYGIESWNSISNCSQTLSYDLTAVTLDLYHSNGYRARVRAVDGSRHSNWTVTNTRFSVDEVTLTVGSVNLEIHNGFILGKIQLPRPKMAPANDTYESIFSHFREYEIAIRKVPGNFTFTHKKVKHENFSLLTSGEVGEFCVQVKPSVASRSNKGMWSKEECISLTRQYFTVTNTTTYYAYTQQQSGAQAYCQAQQLYVRRRKKTETSQVAPAHHHHHHHHHHGSKLVDPRGPTIKPCPPCKCPAPNLLGGPSVFIFPPKIKDVLMISLSPIVTCVVVDVSEDDPDVQISWFVNNVEVHTAQTQTHREDYNSTLRVVSALPIQHQDWMSGKEFKCKVNNKDLPAPIERTISKPKGSVRAPQVYVLPPPEEEMTKKQVTLTCMVTDFMPEDIYVEWTNNGKTELNYKNTEPVLDSDGSYFMYSKLRVEKKNWVERNSYSCSVVHEGLHNHHTTKSFSRTPGK
modifications: labeled with NT647 RED-NHS fluorescent dye for MST

Kd (IL29 [3]): 11.5 nM | EC50 (read off the curve) (IL29 [4]): ~10 nM
B2: IFNλR1^QTY-Fc (HUMAN Interferon lambda receptor 1-Fc fusion) (Fc fusion)
chain: RPRLAPPQNVTLLSQNFSVYLTWLPGLGNPQDVTYFVAYQSSPTRRRWREVEECAGTKELLCSMMCLKKQDLYNKFKGRVRTVSPSSKSPWVESEYLDYLFEVEPAPPVLVLTQTEEILSANATYQLPPCMPPLDLKYEVAFWKEGAGNKTLFPVTPHGQPVQITLQPAASEHHCLSARTIYTFSVPKYSKFSKPTCFLLEVPEANWAYQTQPSQQTQQQTTAAGGTTWKTLMGNTETSQVAPAHHHHHHHHHHGSKLVDPRGPTIKPCPPCKCPAPNLLGGPSVFIFPPKIKDVLMISLSPIVTCVVVDVSEDDPDVQISWFVNNVEVHTAQTQTHREDYNSTLRVVSALPIQHQDWMSGKEFKCKVNNKDLPAPIERTISKPKGSVRAPQVYVLPPPEEEMTKKQVTLTCMVTDFMPEDIYVEWTNNGKTELNYKNTEPVLDSDGSYFMYSKLRVEKKNWVERNSYSCSVVHEGLHNHHTTKSFSRTPGK
modifications: labeled with NT647 RED-NHS fluorescent dye for MST

Kd (IFNγ [5]): 6.2 nM | EC50 (read off the curve) (IFNγ [6]): ~9 nM
B3: IFNγR1^QTY-Fc (HUMAN Interferon gamma receptor 1-Fc fusion) (Fc fusion)
chain: EMGTADLGPSSVPTPTNVTIESYNMNPIVYWEYQIMPQVPVFTVEVKNYGVKNSEWIDACINISHHYCNISDHVGDPSNSLWVRVKARVGQKESAYAKSEEFAVCRDGKIGPPKLDIRKEEKQIMIDIFHPSVFVNGDEQEVDYDPETTCYIRVYNVYVRMNGSEIQYKILTQKEDDCDEIQCQLAIPVSSLNSQYCVSAEGVLHVWGVTTEKSKEVCITIFNSSIKGSQWTPTTAAQQQYQTQSQTYTCFYIKKTETSQVAPAHHHHHHHHHHGSKLVDPRGPTIKPCPPCKCPAPNLLGGPSVFIFPPKIKDVLMISLSPIVTCVVVDVSEDDPDVQISWFVNNVEVHTAQTQTHREDYNSTLRVVSALPIQHQDWMSGKEFKCKVNNKDLPAPIERTISKPKGSVRAPQVYVLPPPEEEMTKKQVTLTCMVTDFMPEDIYVEWTNNGKTELNYKNTEPVLDSDGSYFMYSKLRVEKKNWVERNSYSCSVVHEGLHNHHTTKSFSRTPGK
modifications: labeled with NT647 RED-NHS fluorescent dye for MST

Reference: patent US20210300993A1 (AVALON GLOBOCARE, published 2021)
